According to patent US12240882B2, “Fusion proteins comprising an engineered knottin peptide and uses thereof” (The Board of Trustees of the Leland Stanford Junior …, priority 2010, dated 2025):
Numbering of substitutions follows the chain as printed. Numbers in names are those of the source. Entries after “also recorded” stand apart in the source; their conditions may differ. Ends that are not written are not given here.

Assays:
[1] = test system: HUVECs; test: HUVEC proliferation assay stimulated with HGF; conditions: 0.5 nM HGF
[2] = target: αvβ3 integrin (Homo sapiens, UniProt P05106+P06756); test: cRGD competition of EETI 2.5D-Axl binding to K562-αvβ3 cells
[3] = test system: U87MG cells; test: Binding of AgRP mutant 7A to U87MG cells; conditions: read-out: KD against U87MG cells
Excerpt: (§1) The αvβ3 integrin receptor is over-expressed on many solid tumor cells making it an important cancer target. The Agouti related protein (AgRP), a cystine-knot peptide, contains four disulfide bonds and four solvent-exposed loops. It was engineered to target αvβ3 integrin receptors with pM binding affinity.

[4] = test system: K562-αvβ3 cells; test: Binding of AgRP mutant 7A to K562-αvβ3 cells; conditions: read-out: KD against K562-αvβ3 cells
Excerpt: as §1

[5] = target: T1, Met receptor (Homo sapiens, UniProt P08581); test: Met receptor phosphorylation assay in PC3 cells; assay type: cell-based; conditions: 0.3 nM HGF, Western blot
T1 construct: PC3 cells express medium levels of the αvβ3 integrin and Met; endogenous in cells; host or cells: PC3 prostate cancer cells
Method: A Met receptor phosphorylation assay was performed in PC3 (prostate cancer cells). Met receptor phosphorylation was assayed by Western blot after stimulation with 0.3 nM HGF. […] (Note: PC3 cells express medium levels of the αvβ3 integrin and Met, and low levels of the α5β1 integrin).

[6] = Melting temperature of engineered Axl Ig1 clone; conditions: versus wild-type Axl Ig1
[7] = target: T2, Gas6 (Homo sapiens, UniProt Q14393); test: Equilibrium binding of engineered Axl Ig1 clones to Gas6; conditions: binding to Gas6, versus wild-type Axl Ig1
T2 sequence (Q14393 31-678): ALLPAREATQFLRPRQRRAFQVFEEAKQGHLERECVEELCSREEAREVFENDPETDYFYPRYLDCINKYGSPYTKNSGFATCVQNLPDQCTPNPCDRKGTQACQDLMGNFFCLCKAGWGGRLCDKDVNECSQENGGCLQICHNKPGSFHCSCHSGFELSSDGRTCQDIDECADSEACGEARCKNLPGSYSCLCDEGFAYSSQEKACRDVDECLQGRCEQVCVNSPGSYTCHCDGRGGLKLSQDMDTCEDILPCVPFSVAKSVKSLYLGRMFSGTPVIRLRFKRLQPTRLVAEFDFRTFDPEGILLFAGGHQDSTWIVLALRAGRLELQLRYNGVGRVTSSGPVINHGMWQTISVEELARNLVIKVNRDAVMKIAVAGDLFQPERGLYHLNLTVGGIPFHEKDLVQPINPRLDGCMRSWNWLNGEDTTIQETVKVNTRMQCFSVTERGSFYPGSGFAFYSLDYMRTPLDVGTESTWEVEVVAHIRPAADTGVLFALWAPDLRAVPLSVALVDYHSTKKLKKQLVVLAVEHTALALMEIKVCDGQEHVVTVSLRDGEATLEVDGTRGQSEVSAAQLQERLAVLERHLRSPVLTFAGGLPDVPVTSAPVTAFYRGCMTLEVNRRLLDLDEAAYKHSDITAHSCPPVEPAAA

[8] = target: T2, Gas6; test: Yeast surface display equilibrium binding to soluble Gas6; parameters: purchased R&D Systems
[9] = test system: human umbilical vein endothelial cells (HUVECs); test: HUVEC cell binding assay of knottin-NK1 fusions; conditions: read-out: binding affinity (KD) towards HUVECs
Excerpt: HUVECs express medium levels of the αvβ3, αvβ5 integrins, the Met receptor, and a high level of the […] integrin.

[10] = target: human Met-Fc (Homo sapiens, UniProt P08581); test: Dual receptor direct binding assay on K562-αvβ3 cells; conditions: Met-Fc 220 nM, proteins 2 or 20 nM
Method: In this experiment, a mixture of soluble Alexa-488 labeled human Met-Fc (220 nM) and the mono-specific and the multi-specific proteins (2 or 20 nM) were added to K562-αvβ3 cells. Binding was detected by flow cytometry.

[11] = Serum stability, Western Blot; assay type: in vitro ADME; conditions: 40% human serum, 37° C., 7 days
Method: Serum stability of AgRp7A-M2.2(D127A) and EETI2.5F-M2.2(D127A) was shown when the proteins were incubated with 40% human serum at 37° C. for over several days. Samples were analyzed by Western Blot and detected with an antibody against the FLAG epitope tag.

Which results are given for “EETI RGD mutant binding αvβ3, αvβ5, α5β1, SEQ ID NO: 33 GCPRPRGDNPPLTCKQDSDCLAGCVCGPNGFCG (ends and bridges not checked; cysteine pairing not given here) [EETI2.5F]”?
inhibitory effect on HUVEC proliferation [1]: good inhibition; inhibition of HUVEC proliferation ([1]; 1 μM, cells alone=90% inhibition): 70%

For cRGD [reference compound], which “binding of EETI 2.5D-Axl to K562-αvβ3 cells with molar excess of cRGD” value [2] is on record?
Its value is “inhibits the binding”.

For “AgRP mutant, SEQ ID NO: 36 GCVRLHESCLGQQVPCCDPAATCYCSGRGDNDLVCYCR (ends and bridges not checked; cysteine pairing not given here) [AgRp7A]”, which Kd [3] is on record?
The Kd was 0.78 nM.

And the “inhibitory effect on HUVEC proliferation” value [1]?
The value was “little inhibitory effect”.

And the Kd [4]?
The Kd was 0.89 nM.

And the “inhibition of Met phosphorylation” value [5]?
The value was “did not show inhibition”.

B1: Axl S6-1: engineered Axl Ig1, G32S, D87G, V92A, G127R, SEQ ID NO: 62 (protein)
chain: APRGTQAEESPFVSNPGNITGARGLTGTLRCQLQVQGEPPEVHWLRDGQILELADSTQTQVPLGEDEQGDWIVASQLRITSLQLSDTGQYQCLVFLGHQTFVSQPGYVRLEGLP
For B1, which “improvement in melting temperature over wild-type” value [6] is on record?
Its value is 13 °C.

What about the “fold improvement in equilibrium binding over wild-type” value [7] of the same molecule?
The value was 20 fold.

B2: Wt EETI-Axl: Wild-type EETI-II fused to the Axl Ig1 N-terminus (protein)
chain: GCPRILMRCKQDSDCLAGCVCGPNGFCGSRGTQAEESPFVGNPGNITGARGLTGTLRCQLQVQGEPPEVHWLRDGQILELADSTQTQVPLGEDEQDDWIVVSQLRITSLQLSDTGQYQCLVFLGHQTFVSQPGYVGLEGLP
Which “affinity / binding to Gas6” value [8] does the source give for B2 here?
Its value is “same affinity as wild-type Axl”.

B3: EETI2.5F-M2.2(D127A): EETI 2.5F knottin fused to NK1 fragment of HGF (M2.2 (D127A)), SEQ ID NO: 89 (protein)
chain: DYKDDDDKPRGCPRPRGDNPPLTCSQDSDCLAGCVCGPNGFCGYAEGQRKRRNTIHEFKKSAKTTLIKIDPALKIKTEKVNTADQCANRCTRNKGLPFTCKAFVFDKARKRCLWFPFNSMSSGVKKEFGHEFDLYENKDYIRACIIGNGRSYRGTVSITKSGIKCQPWSSMIPHEHSFLPSSYRGEDLRENYCRNPRGEEGGPWCFTSDPEVRYEVCDIPQCSEVETRHHHHHH
Which results are given for B3?
Kd [9]: 4.7 ± 0.6 nM; simultaneous binding to soluble Met-Fc and αvβ3 integrin on cells [10]: able to bind to soluble Met-Fc; inhibitory effect on HUVEC proliferation [1]: higher inhibitory effects; amount of intact fusion protein in serum [11]: No significant decrease

B4: EETI2.5F-M2.2: EETI 2.5F knottin fused to NK1 fragment of HGF (M2.2), SEQ ID NO: 88 (protein)
chain: B3 chain with A143D
Which “simultaneous binding to soluble Met-Fc and αvβ3 integrin on cells” value (from here on “simultaneous binding”) [10] does the source give for B4 here?
Its value is “able to bind to soluble Met-Fc”.

B5: AgRp7A-M2.2(D127A): AgRP 7A knottin fused to NK1 fragment of HGF (M2.2 (D127A)), SEQ ID NO: 86 (protein)
chain: DYKDDDDKPRGCVRLHESCLGQQVPCCDPAATCYCSGRGDNDLVCYCRYAEGQRKRRNTIHEFKKSAKTTLIKIDPALKIKTEKVNTADQCANRCTRNKGLPFTCKAFVFDKARKRCLWFPFNSMSSGVKKEFGHEFDLYENKDYIRACIIGNGRSYRGTVSITKSGIKCQPWSSMIPHEHSFLPSSYRGEDLRENYCRNPRGEEGGPWCFTSDPEVRYEVCDIPQCSEVETRHHHHHH
Which Kd [9] does the source give for B5 here?
The Kd was 9.4 ± 1 nM.

And the “simultaneous binding” value [10]?
Its value is “able to bind to soluble Met-Fc”.

What about the “inhibitory effect on HUVEC proliferation” value [1] of the same molecule?
The value was “higher inhibitory effects”.

And the “amount of intact fusion protein in serum” value [11]?
The value was “No significant decrease”.

B6: AgRp7A-M2.2: AgRP 7A knottin fused to NK1 fragment of HGF (M2.2), SEQ ID NO: 85 (protein)
chain: B5 chain with A148D
For B6, which “simultaneous binding” value [10] is on record?
Its value is “able to bind to soluble Met-Fc”.

B7: AgRp7A-Aras4: AgRP 7A knottin fused to NK1 fragment of HGF (Aras4), SEQ ID NO: 66 (protein)
chain: B5 chain with R54G, K79R, V85A, N98S, D144A, A148D, N153R, S156N, S175A, F211Y
Which “inhibition of Met phosphorylation” value [5] does the source give for B7 here?
The value was “Dose dependent decreases; also recorded: slightly higher inhibitory effects”.
